The values that follow come from paper PMC2834698.

The target in this assay is Arabidopsis thaliana transthyretin-like protein (TTL), 311-residue cytoplasmic isoform (Arabidopsis thaliana). In words: SEC + other: sucrose density gradient rate zonal ultracentrifugation; Siegel and Monty method: Stokes radius from analytical gel filtration (Superose 12 10/300, 0.5 ml/min) and sedimentation coefficient from 5 to 20% sucrose gradients (25 h 15 min, 260800 g, SW41 Ti), both in buffer C (150 mM NaCl, EDTA, 20 mM Tris-HCl, pH 8.0); native mass 137.3 kDa against a subunit of 36.6 kDa. On the technique in general: In gel filtration, larger molecules generally elute earlier.

The stoichiometry N is the number of molecules, sites or subunits per partner or assembly. “Arabidopsis thaliana transthyretin-like protein (TTL), 311-residue cytoplasmic isoform (enzyme)”: the stoichiometry N worked out at 4.
